Reference: US20230131339A1, “EPI-X4 BASED PEPTIDES AND DERIVATIVES THEREOF” (Universitaet Ulm, priority 2020, published 2023)
Where no end group is shown, it is not given here. Side-chain parts run from the residue outwards. [ ]: non-standard residue; d: D form. The star is where a group is joined. Stearoyl = CCCCCCCCCCCCCCCCCC(=O)*; Palmitoyl = CCCCCCCCCCCCCCCC(=O)*; Myristoyl = CCCCCCCCCCCCCC(=O)*; Glu = glutamate linker; Chl = cholesterol

biological target: CXC chemokine receptor type 4 (CXCR4) (human, UniProt P61073 1-352); assay: cell-based or functional assay
Sequence (P61073 whole entry): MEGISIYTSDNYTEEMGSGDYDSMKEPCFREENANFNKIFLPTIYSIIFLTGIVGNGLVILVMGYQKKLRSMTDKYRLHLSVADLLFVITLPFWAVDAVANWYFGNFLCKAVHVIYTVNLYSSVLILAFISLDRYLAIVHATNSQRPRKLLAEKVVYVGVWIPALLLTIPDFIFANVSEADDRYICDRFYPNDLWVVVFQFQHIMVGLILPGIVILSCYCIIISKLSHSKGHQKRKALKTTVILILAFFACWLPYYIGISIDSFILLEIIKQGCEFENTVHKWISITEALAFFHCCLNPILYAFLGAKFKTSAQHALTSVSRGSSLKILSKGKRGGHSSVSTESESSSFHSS

| Binder | IC50, HIV inhibition assay [nM] | IC50, HIV-1 inhibition assay [nM] | IC50, X4-HIV-1 inhibition assay [nM] | fold increase of anti-HIV-1 potency compared to WSC02 [fold] |
| --- | --- | --- | --- | --- |
| [dL]LRWSRKMPCVS (not fully specified (residue 7)) [JM#140] | 50 to 150 |  |  |  |
| IVRWSK(Palmitoyl)K-NH2 [JM#164] | > 150 |  |  |  |
| ILRWSRKLPSVS [JM#122] | 50 to 150 |  |  |  |
| ILRWSHKVPCVS [JM#9] | > 150 |  |  |  |
| IVRWSKK-NH2 [JM#110] | > 150 |  |  |  |
| [dL]MRWSRKMPCVS (ends and bridges not checked) [JM#36] | > 150 | 206 |  |  |
| GLRWSRKMPCVS [JM#31] | > 150 |  |  |  |
| IVRWSK(Palmitoyl)KVPCVS [JM#168] | > 150 |  |  |  |
| IVRWSKKVP-NH2 [JM#106] | > 150 |  |  |  |
| IFRWSRKVPCVS [JM#10] | 50 to 150 |  |  |  |
| ILRWSRK(Lau)LPCVS [JM#214] | 50 to 150 |  |  |  |
| [dL]LRWSRK(Stearoyl)-NH2 (N-terminus assumed; SMILES CCCCCCCCCCCCCCCCCC(=O)NCCCC[C@H](NC(=O)[C@H](CCCNC(=N)N)NC(=O)[C@H](CO)NC(=O)[C@H](Cc1c[nH]c2ccccc12)NC(=O)[C@H](CCCNC(=N)N)NC(=O)[C@H](CC(C)C)NC(=O)[C@H](N)CC(C)C)C(N)=O) [JM#256] | 50 to 150 |  |  |  |
| IVRWSKKFPCVS [JM#7] | > 150 |  |  |  |
| ILRWSRKLPCK([Glu-Palmitoyl])S [JM#145] | > 150 |  |  |  |
| ILRWSRKMPSVS [JM#24] | > 150 |  |  |  |
| [dL]LRWSRKMPCVS [JM#29] | > 150 |  |  |  |
| IXRWSRKLPCVS (d-L at position 2) [JM#41] | > 150 |  |  |  |
| MXRWSRKMPCVS (d-L at position 2) [JM#44] | > 150 |  |  |  |
| Ac-[dS]MRWSRKMPCVS [JM#33] | > 150 |  |  |  |
| IFRWSKKVPCVS [JM#2] | > 150 |  |  |  |
| ILRWSRK(Palmitoyl)MPCLS [JM#149] | 50 to 150 |  |  |  |

| Binder | IC50, HIV inhibition assay [nM] | IC50, HIV-1 inhibition assay [nM] | IC50, X4-HIV-1 inhibition assay [nM] | fold increase of anti-HIV-1 potency compared to WSC02 [fold] |
| --- | --- | --- | --- | --- |
| ILRWSRK(Chl)LPCVS [JM#184] | > 150 |  |  |  |
| IVRWSHKVPCVS [JM#4] | > 150 |  |  |  |
| IVRWSRKVPCVS [JM#3] | > 150 |  |  |  |
| Ac-[dS]LRWSRKMPCVS [JM#26] | > 150 |  |  |  |
| ILRWSRK([Glu-Palmitoyl])MPCLS [JM#148] | > 150 |  |  |  |
| Ac-SMRWSRKMPCVS [JM#32] | > 150 |  |  |  |
| IYRWSRKMPCLS [JM#146] | > 150 |  |  |  |
| ILRWSRKVPSVS [JM#23] | > 150 |  |  |  |
| ILRWSRKLPCVS (not fully specified (residue 7)) [JM#204] | > 150 |  |  |  |
| IIRWSRKMPCVS [JM#16] | > 150 |  |  |  |
| ILRWSRKVPC[dV]S [JM#15] | > 150 |  |  |  |
| VLRWSRKLPCVS [JM#189] | > 150 |  |  |  |
| I[dL]RWSRKMPCVS [JM#42] | > 150 |  |  |  |
| [dF]MRWSRKMPCVS [JM#37] | > 150 |  |  |  |
| ILRWSRKLPCVS (not fully specified (residue 7)) [JM#143] | > 150 |  | 5 | > 60 |
| ILRWSRKVPCVS [JM#8] | 50 to 150 |  |  |  |
| IVRWSKK(Palmitoyl)-NH2 [JM#165] | > 150 |  |  |  |
| MLRWSRKMPCVS [JM#27] | 50 to 150 |  |  |  |
| M[dL]RWSRK(Palmitoyl)LP-NH2 (N-terminus assumed; SMILES CCCCCCCCCCCCCCCC(=O)NCCCC[C@H](NC(=O)[C@H](CCCNC(=N)N)NC(=O)[C@H](CO)NC(=O)[C@H](Cc1c[nH]c2ccccc12)NC(=O)[C@H](CCCNC(=N)N)NC(=O)[C@@H](CC(C)C)NC(=O)[C@@H](N)CCSC)C(=O)N[C@@H](CC(C)C)C(=O)N1CCC[C@H]1C(N)=O) [JM#179] | > 150 |  |  |  |
| [dL]MRWSRK(Palmitoyl)MPCVS [JM#176] | > 150 |  |  |  |
| [dI]LRWSRK-NH2 [JM#173] | > 150 |  |  |  |

| Binder | IC50, HIV inhibition assay [nM] | IC50, HIV-1 inhibition assay [nM] | IC50, X4-HIV-1 inhibition assay [nM] | fold increase of anti-HIV-1 potency compared to WSC02 [fold] |
| --- | --- | --- | --- | --- |
| ILRWSRK(Dec)LPCVS [JM#215] | > 150 |  |  |  |
| IVRWSKKVPSVS [JM#151] | > 150 |  |  |  |
| MMRWSRKMPCVS [JM#34] | 50 to 150 |  |  |  |
| IVRWSKKLPCVS [JM#5] | > 150 |  |  |  |
| [dM]MRWSRKMPCVS [JM#35] | > 150 |  |  |  |
| [dI]LRWSRK(Palmitoyl)LP-NH2 [JM#175] | > 150 |  |  |  |
| ILRWSRK(Myristoyl)-NH2 [JM#262] | 50 to 150 |  |  |  |
| Ac-ILRWSRKLPCVS [JM#185] | > 150 |  |  |  |
| ILRWSKKVPCVS [JM#1] | > 150 |  |  |  |
| [dF]LRWSRKMPCVS [JM#30] | > 150 |  |  |  |
| ILRWSRK(Stearoyl)LPCVS [JM#182] | > 150 |  |  |  |
| Ac-SLRWSRKMPCVS [JM#25] | > 150 |  |  |  |
| M[dL]RWSRK(Palmitoyl)-NH2 (N-terminus assumed; SMILES CCCCCCCCCCCCCCCC(=O)NCCCC[C@H](NC(=O)[C@H](CCCNC(=N)N)NC(=O)[C@H](CO)NC(=O)[C@H](Cc1c[nH]c2ccccc12)NC(=O)[C@H](CCCNC(=N)N)NC(=O)[C@@H](CC(C)C)NC(=O)[C@@H](N)CCSC)C(N)=O) [JM#181] | > 150 |  |  |  |
| IVRWSKKMPCVS [JM#12] | > 150 |  |  |  |
| XMRWSRKMPCVS (d-G at position 1 (so in the source)) [JM#38] | > 150 |  |  |  |
| XLRWSRKMPCVS (d-M at position 1) [JM#28] | > 150 | 246 |  |  |
| IFRWSHKVPCVS [JM#11] | > 150 |  |  |  |
| IVRWSKKVPC[dV]S [JM#14] | > 150 |  |  |  |
| IVRWSKKIPCVS [JM#6] | > 150 |  |  |  |
